Series [1] has as its target PK PCNA (P253A-K254A PCNA, His-tagged), P18248.
Series [2] deals with LIPK PCNA (L126A-I128A-P253A-K254A PCNA, His-tagged), P18248.
The target in series [3] is WT His-tagged PCNA (recombinant Xenopus PCNA), P18248.
Series [4] addresses LI PCNA (His-tagged mutant Xenopus PCNA), P18248.
Series [5] has as its target PCNA, endogenous, in Xenopus egg extract (HSS), P18248.

Sequence of PCNA, endogenous, in Xenopus egg extract (HSS), P18248 (P18248 whole entry): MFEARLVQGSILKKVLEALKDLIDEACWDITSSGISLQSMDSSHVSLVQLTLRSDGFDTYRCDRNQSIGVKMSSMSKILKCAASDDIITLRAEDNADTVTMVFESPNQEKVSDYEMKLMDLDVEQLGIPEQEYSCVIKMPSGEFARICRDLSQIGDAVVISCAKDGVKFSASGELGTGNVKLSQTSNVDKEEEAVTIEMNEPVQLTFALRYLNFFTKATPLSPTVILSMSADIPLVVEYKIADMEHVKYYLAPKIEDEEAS
Sequence of LIPK PCNA (L126A-I128A-P253A-K254A PCNA, His-tagged), P18248 (P18248 whole entry L126A/I128A/P253A/K254A): as the sequence (P18248 whole entry) above, with L126A, I128A, P253A, K254A counted along it
Sequence of WT His-tagged PCNA (recombinant Xenopus PCNA), P18248 (P18248 whole entry): as the sequence (P18248 whole entry) above
Sequence of PK PCNA (P253A-K254A PCNA, His-tagged), P18248 (P18248 whole entry P253A/K254A): as the sequence (P18248 whole entry) above, with P253A, K254A counted along it
Sequence of LI PCNA (His-tagged mutant Xenopus PCNA), P18248 (P18248 other isoform, or with tags, fused parts or gaps mutant): as the sequence (P18248 whole entry) above, with L126A, I128A counted along it

B1: GST-APE2 (recombinant GST-tagged Xenopus APE2) (protein)
chain: MKIVSWNINGIRATRVGLKETLDSLDADIICLQETKVTRDLLDEPSAIVEGYNSYFSFSRVRSGYSGVATFCKSSTTPQAAEEGLSGVFCNRTGSVGCYGNTEQFLEEELQSLDQEGRAVLTQHRILNCEDKEETLTVINVYCPRADPEKPERKTYKLRFYHLLQTRAEAILQNGGHVIILGDVNTSHRPLDHCDPTDLETFEENPGRQWLNQFLGDPIPSQKGDSETVMPPSAGSGLFYDSFRYFHPTQKNAFTCWCSASGARQTNYGTRIDYILGNRELVESEFLDSVIMPEVEGSDHCPVKAFMKCQPIAANKCPPLCTKYLPEFAGRQQKLLQFLVKKENTLGNTTEESSELTGTPSFTEGADISTVRKRPSDKLNSTSKKKSKIVTKNGQGNLLSFFKPERQKLTMATECNPIEVPICKKEKTVQKDLQPATPAVKYNKPQTAFWKSLLKGPPPPPNCKGHSEPCVLRTVKKAGPNCGRQFYVCARPEGHSSNPQARCNFFLWLTKKAGCED
Turning to B1, the “exonuclease activity on FAM-labeled gapped dsDNA (Type I resected products), purified proteins in vitro” value in series [1] is listed as “The gapped dsDNA was catalyzed into Type I resected products by recombinant APE2 with the presence of WT PCNA, but not LIPK PCNA, LI PCNA, or PK PCNA”; in series [2], “The gapped dsDNA was catalyzed into Type I resected products by recombinant APE2 with the presence of WT PCNA, but not LIPK PCNA, LI PCNA, or PK PCNA”; in series [3], “The gapped dsDNA was catalyzed into Type I resected products by recombinant APE2 with the presence of WT PCNA, but not LIPK PCNA, LI PCNA, or PK PCNA”; in series [4], “The gapped dsDNA was catalyzed into Type I resected products by recombinant APE2 with the presence of WT PCNA, but not LIPK PCNA, LI PCNA, or PK PCNA”.

B2: WT Myc-APE2 (recombinant Myc-tagged Xenopus APE2) (protein)
chain: MKIVSWNINGIRATRVGLKETLDSLDADIICLQETKVTRDLLDEPSAIVEGYNSYFSFSRVRSGYSGVATFCKSSTTPQAAEEGLSGVFCNRTGSVGCYGNTEQFLEEELQSLDQEGRAVLTQHRILNCEDKEETLTVINVYCPRADPEKPERKTYKLRFYHLLQTRAEAILQNGGHVIILGDVNTSHRPLDHCDPTDLETFEENPGRQWLNQFLGDPIPSQKGDSETVMPPSAGSGLFYDSFRYFHPTQKNAFTCWCSASGARQTNYGTRIDYILGNRELVESEFLDSVIMPEVEGSDHCPVKAFMKCQPIAANKCPPLCTKYLPEFAGRQQKLLQFLVKKENTLGNTTEESSELTGTPSFTEGADISTVRKRPSDKLNSTSKKKSKIVTKNGQGNLLSFFKPERQKLTMATECNPIEVPICKKEKTVQKDLQPATPAVKYNKPQTAFWKSLLKGPPPPPNCKGHSEPCVLRTVKKAGPNCGRQFYVCARPEGHSSNPQARCNFFLWLTKKAGCED
Regarding B2, in series [5], the “3'-5' SSB end resection of FAM-SSB in APE2-depleted HSS” value is on record as “VVT APE2 but not C470A APE2 rescued the deficiency of SSB end resection of FAM-SSB in APE2-depleted HSS”; the “SSB-induced Chk1 phosphorylation in APE2-depleted HSS” value (shortened to “SSB-induced Chk1 phosphorylation”) is recorded as “WT, but not C470A, APE2 was found to rescue the SSB-induced Chk1 phosphorylation in APE2-depleted HSS”; the “hydrogen peroxide-induced Chk1 phosphorylation in APE2-depleted LSS” value was “VVT APE2, but not G483A-R484A APE2, rescued the hydrogen peroxide-induced Chk1 phosphorylation in APE2-depleted LSS system”; the “recruitment of RPA32, ATR, ATRIP, TopBP1, and Rad9 to SSB plasmid in APE2-depleted HSS” value was “WT APE2, but not C470A APE2, rescued the recruitment of RPA32, ATR, ATRIP, TopBP1, and Rad9 to SSB in APE2-depleted HSS”.

B3: C470A Myc-APE2 (protein)
chain: MKIVSWNINGIRATRVGLKETLDSLDADIICLQETKVTRDLLDEPSAIVEGYNSYFSFSRVRSGYSGVATFCKSSTTPQAAEEGLSGVFCNRTGSVGCYGNTEQFLEEELQSLDQEGRAVLTQHRILNCEDKEETLTVINVYCPRADPEKPERKTYKLRFYHLLQTRAEAILQNGGHVIILGDVNTSHRPLDHCDPTDLETFEENPGRQWLNQFLGDPIPSQKGDSETVMPPSAGSGLFYDSFRYFHPTQKNAFTCWCSASGARQTNYGTRIDYILGNRELVESEFLDSVIMPEVEGSDHCPVKAFMKCQPIAANKCPPLCTKYLPEFAGRQQKLLQFLVKKENTLGNTTEESSELTGTPSFTEGADISTVRKRPSDKLNSTSKKKSKIVTKNGQGNLLSFFKPERQKLTMATECNPIEVPICKKEKTVQKDLQPATPAVKYNKPQTAFWKSLLKGPPPPPNCKGHSEPAVLRTVKKAGPNCGRQFYVCARPEGHSSNPQARCNFFLWLTKKAGCED
For B3, in series [5], the “3'-5' SSB end resection of FAM-SSB in APE2-depleted HSS” value is “VVT APE2 but not C470A APE2 rescued the deficiency of SSB end resection of FAM-SSB in APE2-depleted HSS”; the “SSB-induced Chk1 phosphorylation” value was “WT, but not C470A, APE2 was found to rescue the SSB-induced Chk1 phosphorylation in APE2-depleted HSS”; the “recruitment of RPA32, ATR, ATRIP, TopBP1, and Rad9 to SSB plasmid in APE2-depleted HSS” value is “WT APE2, but not C470A APE2, rescued the recruitment of RPA32, ATR, ATRIP, TopBP1, and Rad9 to SSB in APE2-depleted HSS”.

B4: G483A-R484A Myc-APE2 (protein)
chain: MKIVSWNINGIRATRVGLKETLDSLDADIICLQETKVTRDLLDEPSAIVEGYNSYFSFSRVRSGYSGVATFCKSSTTPQAAEEGLSGVFCNRTGSVGCYGNTEQFLEEELQSLDQEGRAVLTQHRILNCEDKEETLTVINVYCPRADPEKPERKTYKLRFYHLLQTRAEAILQNGGHVIILGDVNTSHRPLDHCDPTDLETFEENPGRQWLNQFLGDPIPSQKGDSETVMPPSAGSGLFYDSFRYFHPTQKNAFTCWCSASGARQTNYGTRIDYILGNRELVESEFLDSVIMPEVEGSDHCPVKAFMKCQPIAANKCPPLCTKYLPEFAGRQQKLLQFLVKKENTLGNTTEESSELTGTPSFTEGADISTVRKRPSDKLNSTSKKKSKIVTKNGQGNLLSFFKPERQKLTMATECNPIEVPICKKEKTVQKDLQPATPAVKYNKPQTAFWKSLLKGPPPPPNCKGHSEPCVLRTVKKAGPNCAAQFYVCARPEGHSSNPQARCNFFLWLTKKAGCED
With B4, in series [5], the “SSB-induced Chk1 phosphorylation” value was “G483A-R484A APE2, which is deficient in interaction with ssDNA and PCNA CTM motif (FIGS. 12D and 12E), also failed to rescue the SSB-induced Chk1 phosphorylation in APE2-depleted HSS”; the “hydrogen peroxide-induced Chk1 phosphorylation in APE2-depleted LSS” value is reported as “VVT APE2, but not G483A-R484A APE2, rescued the hydrogen peroxide-induced Chk1 phosphorylation in APE2-depleted LSS system”.

The values above are taken from patent US20200017862.
